Reference: US20210139559A1 (XL PROTEIN, published 2021)

Molecular target: T1, human VEGF165 ligand (human, UniProt P15692-4 27-191)
T1 construct: also called VEGF-A165
Assay: serial dilution mixed with 50 pM human VEGF165 in solution, unbound VEGF165 measured by ELISA
Description: The amount of unbound VEGF₁₆₅ was then measured by a human VEGF-specific ELISA (Human VEGF DuoSet ELISA kit, R&D Systems, CAT. No. DY293B-05).
Unbound human VEGF₁₆₅ or PDGF-BB was calculated using 4 parameters curve with the absorbance value. And the IC₅₀ of the tested fusion proteins and the reference was calculated using 4 parameters curve with unbound human VEGF₁₆₅ or PDGF-BB.

T1 sequence (P15692 other isoform, or with tags, fused parts or gaps limits assumed): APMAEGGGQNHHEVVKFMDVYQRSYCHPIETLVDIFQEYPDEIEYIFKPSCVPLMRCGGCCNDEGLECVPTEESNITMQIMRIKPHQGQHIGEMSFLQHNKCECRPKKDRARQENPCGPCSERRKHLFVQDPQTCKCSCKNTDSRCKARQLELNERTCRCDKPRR

| Binder | IC50 |
| --- | --- |
| PDGFRαD123-PAS(300)-VEGFR1D2/R2D3 (receptor, Expressed in CHO-3E7 cells, purified over a Ni column; also called EPS1103P) QLSLPSILPNENEKVVQLNSSFSLRCFGESEVSWQYPMSEEESSDVEIRNEENNSGLFVTVLEVSSASAAHTGLYTCYYNHTQTEENELEGRHIYIYVPDPDVAFVPLGMTDYLVIVEDDDSAIIPCRTTDPETPVTLHNSEGVVPASYDSRQGFNGTFTVGPYICEATVKGKKFQTIPFNVYALKATSELDLEMEALKTVYKSGETIVVTCAVFNNEVVDLQWTYPGEVKGKGITMLEEIKVPSIKLVYTLTVPEATVKDSGDYECAARQATREVKEMKKVTISVHEKGASPAAPAPASPAAPAPSAPAASPAAPAPASPAAPAPSAPAASPAAPAPASPAAPAPSAPAASPAAPAPASPAAPAPSAPAASPAAPAPASPAAPAPSAPAASPAAPAPASPAAPAPSAPAASPAAPAPASPAAPAPSAPAASPAAPAPASPAAPAPSAPAASPAAPAPASPAAPAPSAPAASPAAPAPASPAAPAPSAPAASPAAPAPASPAAPAPSAPAASPAAPAPASPAAPAPSAPAASPAAPAPASPAAPAPSAPAASPAAPAPASPAAPAPSAPAASPAAPAPASPAAPAPSAPASDTGRPFVEMYSEIPEIIHMTEGRELVIPCRVTSPNITVTLKKFPLDTLIPDGKRIIWDSRKGFIISNATYKEIGLLTCEATVNGHLYKTNYLTHRQTNTIIDVVLSPSHGIELSVGEKLVLNCTARTELNVGIDFNWEYPSSKHQHKKLVNRDLKTQSGSEMKKFLSTLTIDGVTRSDQGLYTCAASSGLMTKKNSTFVRVHEKHHHHHH | 0.869 nM |
| PDGFRαD123-(GGGGS)3-PAS(600)-(GGGGS)3-VEGFR1D2/R2D3 (receptor, also called EPS1114P) QLSLPSILPNENEKVVQLNSSFSLRCFGESEVSWQYPMSEEESSDVEIRNEENNSGLFVTVLEVSSASAAHTGLYTCYYNHTQTEENELEGRHIYIYVPDPDVAFVPLGMTDYLVIVEDDDSAIIPCRTTDPETPVTLHNSEGVVPASYDSRQGFNGTFTVGPYICEATVKGKKFQTIPFNVYALKATSELDLEMEALKTVYKSGETIVVTCAVFNNEVVDLQWTYPGEVKGKGITMLEEIKVPSIKLVYTLTVPEATVKDSGDYECAARQATREVKEMKKVTISVHEKGGGGGSGGGGSGGGGSASPAAPAPASPAAPAPSAPAASPAAPAPASPAAPAPSAPAASPAAPAPASPAAPAPSAPAASPAAPAPASPAAPAPSAPAASPAAPAPASPAAPAPSAPAASPAAPAPASPAAPAPSAPAASPAAPAPASPAAPAPSAPAASPAAPAPASPAAPAPSAPAASPAAPAPASPAAPAPSAPAASPAAPAPASPAAPAPSAPAASPAAPAPASPAAPAPSAPAASPAAPAPASPAAPAPSAPAASPAAPAPASPAAPAPSAPAASPAAPAPASPAAPAPSAPAASPAAPAPASPAAPAPSAPAASPAAPAPASPAAPAPSAPAASPAAPAPASPAAPAPSAPAASPAAPAPASPAAPAPSAPAASPAAPAPASPAAPAPSAPAASPAAPAPASPAAPAPSAPAASPAAPAPASPAAPAPSAPAASPAAPAPASPAAPAPSAPAASPAAPAPASPAAPAPSAPAASPAAPAPASPAAPAPSAPAASPAAPAPASPAAPAPSAPAASPAAPAPASPAAPAPSAPAASPAAPAPASPAAPAPSAPAASPAAPAPASPAAPAPSAPAASPAAPAPASPAAPAPSAPAASPAAPAPASPAAPAPSAPAAGGGGSGGGGSGGGGSSDTGRPFVEMYSEIPEIIHMTEGRELVIPCRVTSPNITVTLKKFPLDTLIPDGKRIIWDSRKGFIISNATYKEIGLLTCEATVNGHLYKTNYLTHRQTNTIIDVVLSPSHGIELSVGEKLVLNCTARTELNVGIDFNWEYPSSKHQHKKLVNRDLKTQSGSEMKKFLSTLTIDGVTRSDQGLYTCAASSGLMTKKNSTFVRVHEKHHHHHH | 0.506 nM |
| PDGFRαD123-PAS(600)-VEGFR1D2/R2D3 (receptor, also called EPS1113P) QLSLPSILPNENEKVVQLNSSFSLRCFGESEVSWQYPMSEEESSDVEIRNEENNSGLFVTVLEVSSASAAHTGLYTCYYNHTQTEENELEGRHIYIYVPDPDVAFVPLGMTDYLVIVEDDDSAIIPCRTTDPETPVTLHNSEGVVPASYDSRQGFNGTFTVGPYICEATVKGKKFQTIPFNVYALKATSELDLEMEALKTVYKSGETIVVTCAVFNNEVVDLQWTYPGEVKGKGITMLEEIKVPSIKLVYTLTVPEATVKDSGDYECAARQATREVKEMKKVTISVHEKGASPAAPAPASPAAPAPSAPAASPAAPAPASPAAPAPSAPAASPAAPAPASPAAPAPSAPAASPAAPAPASPAAPAPSAPAASPAAPAPASPAAPAPSAPAASPAAPAPASPAAPAPSAPAASPAAPAPASPAAPAPSAPAASPAAPAPASPAAPAPSAPAASPAAPAPASPAAPAPSAPAASPAAPAPASPAAPAPSAPAASPAAPAPASPAAPAPSAPAASPAAPAPASPAAPAPSAPAASPAAPAPASPAAPAPSAPAASPAAPAPASPAAPAPSAPAASPAAPAPASPAAPAPSAPAASPAAPAPASPAAPAPSAPAASPAAPAPASPAAPAPSAPAASPAAPAPASPAAPAPSAPAASPAAPAPASPAAPAPSAPAASPAAPAPASPAAPAPSAPAASPAAPAPASPAAPAPSAPAASPAAPAPASPAAPAPSAPAASPAAPAPASPAAPAPSAPAASPAAPAPASPAAPAPSAPAASPAAPAPASPAAPAPSAPAASPAAPAPASPAAPAPSAPAASPAAPAPASPAAPAPSAPAASPAAPAPASPAAPAPSAPAASPAAPAPASPAAPAPSAPAASPAAPAPASPAAPAPSAPAASDTGRPFVEMYSEIPEIIHMTEGRELVIPCRVTSPNITVTLKKFPLDTLIPDGKRIIWDSRKGFIISNATYKEIGLLTCEATVNGHLYKTNYLTHRQTNTIIDVVLSPSHGIELSVGEKLVLNCTARTELNVGIDFNWEYPSSKHQHKKLVNRDLKTQSGSEMKKFLSTLTIDGVTRSDQGLYTCAASSGLMTKKNSTFVRVHEKHHHHHH | 0.646 nM |

Now those with a lower IC50, led by results:

| IC50 | Binder |
| --- | --- |
| 0.44 nM | VEGFR1D2/R2D3-(GGGGS)3-PAS(600)-(GGGGS)3-PDGFRαD123 (receptor, also called EPS1115P) SDTGRPFVEMYSEIPEIIHMTEGRELVIPCRVTSPNITVTLKKFPLDTLIPDGKRIIWDSRKGFIISNATYKEIGLLTCEATVNGHLYKTNYLTHRQTNTIIDVVLSPSHGIELSVGEKLVLNCTARTELNVGIDFNWEYPSSKHQHKKLVNRDLKTQSGSEMKKFLSTLTIDGVTRSDQGLYTCAASSGLMTKKNSTFVRVHEKGGGGSGGGGSGGGGSASPAAPAPASPAAPAPSAPAASPAAPAPASPAAPAPSAPAASPAAPAPASPAAPAPSAPAASPAAPAPASPAAPAPSAPAASPAAPAPASPAAPAPSAPAASPAAPAPASPAAPAPSAPAASPAAPAPASPAAPAPSAPAASPAAPAPASPAAPAPSAPAASPAAPAPASPAAPAPSAPAASPAAPAPASPAAPAPSAPAASPAAPAPASPAAPAPSAPAASPAAPAPASPAAPAPSAPAASPAAPAPASPAAPAPSAPAASPAAPAPASPAAPAPSAPAASPAAPAPASPAAPAPSAPAASPAAPAPASPAAPAPSAPAASPAAPAPASPAAPAPSAPAASPAAPAPASPAAPAPSAPAASPAAPAPASPAAPAPSAPAASPAAPAPASPAAPAPSAPAASPAAPAPASPAAPAPSAPAASPAAPAPASPAAPAPSAPAASPAAPAPASPAAPAPSAPAASPAAPAPASPAAPAPSAPAASPAAPAPASPAAPAPSAPAASPAAPAPASPAAPAPSAPAASPAAPAPASPAAPAPSAPAASPAAPAPASPAAPAPSAPAASPAAPAPASPAAPAPSAPAASPAAPAPASPAAPAPSAPAAGGGGSGGGGSGGGGSQLSLPSILPNENEKVVQLNSSFSLRCFGESEVSWQYPMSEEESSDVEIRNEENNSGLFVTVLEVSSASAAHTGLYTCYYNHTQTEENELEGRHIYIYVPDPDVAFVPLGMTDYLVIVEDDDSAIIPCRTTDPETPVTLHNSEGVVPASYDSRQGFNGTFTVGPYICEATVKGKKFQTIPFNVYALKATSELDLEMEALKTVYKSGETIVVTCAVFNNEVVDLQWTYPGEVKGKGITMLEEIKVPSIKLVYTLTVPEATVKDSGDYECAARQATREVKEMKKVTISVHEKGHHHHHH |
| 0.331 nM | PAS(200)-PDGFRαD123-VEGFR1D2/R2D3 (receptor, the tag stands at the N-terminus; also called EPS1110P) HHHHHHASPAAPAPASPAAPAPSAPAASPAAPAPASPAAPAPSAPAASPAAPAPASPAAPAPSAPAASPAAPAPASPAAPAPSAPAASPAAPAPASPAAPAPSAPAASPAAPAPASPAAPAPSAPAASPAAPAPASPAAPAPSAPAASPAAPAPASPAAPAPSAPAASPAAPAPASPAAPAPSAPAASPAAPAPASPAAPAPSAPAQLSLPSILPNENEKVVQLNSSFSLRCFGESEVSWQYPMSEEESSDVEIRNEENNSGLFVTVLEVSSASAAHTGLYTCYYNHTQTEENELEGRHIYIYVPDPDVAFVPLGMTDYLVIVEDDDSAIIPCRTTDPETPVTLHNSEGVVPASYDSRQGFNGTFTVGPYICEATVKGKKFQTIPFNVYALKATSELDLEMEALKTVYKSGETIVVTCAVFNNEVVDLQWTYPGEVKGKGITMLEEIKVPSIKLVYTLTVPEATVKDSGDYECAARQATREVKEMKKVTISVHEKGSDTGRPFVEMYSEIPEIIHMTEGRELVIPCRVTSPNITVTLKKFPLDTLIPDGKRIIWDSRKGFIISNATYKEIGLLTCEATVNGHLYKTNYLTHRQTNTIIDVVLSPSHGIELSVGEKLVLNCTARTELNVGIDFNWEYPSSKHQHKKLVNRDLKTQSGSEMKKFLSTLTIDGVTRSDQGLYTCAASSGLMTKKNSTFVRVHEK |
| 0.218 nM | PAS(200)-VEGFR1D2/R2D3-PDGFRαD123 (receptor, the tag stands at the N-terminus; also called EPS1109P) HHHHHHASPAAPAPASPAAPAPSAPAASPAAPAPASPAAPAPSAPAASPAAPAPASPAAPAPSAPAASPAAPAPASPAAPAPSAPAASPAAPAPASPAAPAPSAPAASPAAPAPASPAAPAPSAPAASPAAPAPASPAAPAPSAPAASPAAPAPASPAAPAPSAPAASPAAPAPASPAAPAPSAPAASPAAPAPASPAAPAPSAPASDTGRPFVEMYSEIPEIIHMTEGRELVIPCRVTSPNITVTLKKFPLDTLIPDGKRIIWDSRKGFIISNATYKEIGLLTCEATVNGHLYKTNYLTHRQTNTIIDVVLSPSHGIELSVGEKLVLNCTARTELNVGIDFNWEYPSSKHQHKKLVNRDLKTQSGSEMKKFLSTLTIDGVTRSDQGLYTCAASSGLMTKKNSTFVRVHEKQLSLPSILPNENEKVVQLNSSFSLRCFGESEVSWQYPMSEEESSDVEIRNEENNSGLFVTVLEVSSASAAHTGLYTCYYNHTQTEENELEGRHIYIYVPDPDVAFVPLGMTDYLVIVEDDDSAIIPCRTTDPETPVTLHNSEGVVPASYDSRQGFNGTFTVGPYICEATVKGKKFQTIPFNVYALKATSELDLEMEALKTVYKSGETIVVTCAVFNNEVVDLQWTYPGEVKGKGITMLEEIKVPSIKLVYTLTVPEATVKDSGDYECAARQATREVKEMKKVTISVHEKG |
